Results on two substances are retold here after publication PMC9433394.

The experiment deals with chicken skeletal muscle actin (chicken) (UniProt P68139). The experiment in a line: SEC; 20 uM chicken G-actin mixed with 2DGel at ratios 1:1, 1:2 and 2:1 in 1X KMI-Ca buffer (50 mM KCl, 10 mM imidazole, 1 mM MgCl2, 1 mM CaCl2), 30 min, Enrich SEC 650; peak fractions analysed by SDS-PAGE. A general note: SEC sorts molecules by how far they enter the pores of the column.

For the substance “Heim2DGel (two-domain gelsolin of Heimdallarchaeota LC_3) (natural protein)”, the stoichiometry N (actin per Heim2DGel) came out at 1.
As to “MKD1-2DGel (two-domain gelsolin of Candidatus Prometheoarchaeum syntrophicum MK-D1) (natural protein)”, the stoichiometry N (actin per MKD1-2DGel) worked out at 2.
